# From the supplement of paper PMC10567573
# B1: STK38L (parent)
# chain: FLPGGDMMTLLMKKDTLTEEETQF
# B2: NETO1 (parent)
# chain: KTSLLDQLTNTSGTVIGVTSCIVI
# Variants of: B1
# Test: protein stability index of a GFP-peptide fusion (GPS, HEK-293T) (PSI 1-6); higher = more stable
# Conditions: c terminus: a fixed tail appended
# 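Further: lentivirally expressed fusions sorted by FACS into six bins by GFP to DsRed ratio, PSI derived from sequencing read proportions per bin multiplied by bin number.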
row,Variant,protein stability index
1,FFPGGDMMTLLMKKDTLTEEETQF,3.08
2,FRPGGDMMTLLMKKDTLTEEETQF,4.15
3,FQPGGDMMTLLMKKDTLTEEETQF,2.15
4,FTPGGDMMTLLMKKDTLTEEETQF,2.54
5,FEPGGDMMTLLMKKDTLTEEETQF,4.84
6,FKPGGDMMTLLMKKDTLTEEETQF,4.24
7,FYPGGDMMTLLMKKDTLTEEETQF,3.68
8,FWPGGDMMTLLMKKDTLTEEETQF,3
9,FCPGGDMMTLLMKKDTLTEEETQF,1.42
10,FIPGGDMMTLLMKKDTLTEEETQF,2.07
11,FNPGGDMMTLLMKKDTLTEEETQF,3.32
12,FPPGGDMMTLLMKKDTLTEEETQF,2.65
13,FVPGGDMMTLLMKKDTLTEEETQF,1.78
14,FMPGGDMMTLLMKKDTLTEEETQF,2.33
15,FHPGGDMMTLLMKKDTLTEEETQF,1.91
16,FDPGGDMMTLLMKKDTLTEEETQF,4.38
17,FGPGGDMMTLLMKKDTLTEEETQF,2.23
18,FSPGGDMMTLLMKKDTLTEEETQF,2.6
19,FLPGDDMMTLLMKKDTLTEEETQF,4.23
20,FLPGADMMTLLMKKDTLTEEETQF,2.63
21,FLPGCDMMTLLMKKDTLTEEETQF,2.94
22,FLPGEDMMTLLMKKDTLTEEETQF,3.72
23,FLPVGDMMTLLMKKDTLTEEETQF,3.39
24,FLPFGDMMTLLMKKDTLTEEETQF,2.41
25,FLPWGDMMTLLMKKDTLTEEETQF,1.82
26,FLPKGDMMTLLMKKDTLTEEETQF,3.27
27,FLPAGDMMTLLMKKDTLTEEETQF,2.78

row,Variant,protein stability index
1,FLPEGDMMTLLMKKDTLTEEETQF,3.57
2,FLPSGDMMTLLMKKDTLTEEETQF,2.61
3,FLPNGDMMTLLMKKDTLTEEETQF,2.76
4,FLPYGDMMTLLMKKDTLTEEETQF,2.29
5,FLPPGDMMTLLMKKDTLTEEETQF,3.95
6,FLPTGDMMTLLMKKDTLTEEETQF,3.34
7,FLPMGDMMTLLMKKDTLTEEETQF,2.35
8,FLPQGDMMTLLMKKDTLTEEETQF,3.36
9,FLPCGDMMTLLMKKDTLTEEETQF,3.09
10,FLPDGDMMTLLMKKDTLTEEETQF,3.84
11,FLPLGDMMTLLMKKDTLTEEETQF,2.42
12,FLPHGDMMTLLMKKDTLTEEETQF,3.29
13,FLPRGDMMTLLMKKDTLTEEETQF,3.26
14,FLPIGDMMTLLMKKDTLTEEETQF,2.35
15,FLYGGDMMTLLMKKDTLTEEETQF,1.68
16,FLQGGDMMTLLMKKDTLTEEETQF,2.31
17,FLAGGDMMTLLMKKDTLTEEETQF,1.66
18,FLLGGDMMTLLMKKDTLTEEETQF,1.86
19,FLMGGDMMTLLMKKDTLTEEETQF,2.18
20,FLSGGDMMTLLMKKDTLTEEETQF,1.4
21,FLGGGDMMTLLMKKDTLTEEETQF,2.96
22,FLNGGDMMTLLMKKDTLTEEETQF,1.89
23,FLVGGDMMTLLMKKDTLTEEETQF,2.08
24,FLKGGDMMTLLMKKDTLTEEETQF,2.91
25,FLDGGDMMTLLMKKDTLTEEETQF,2.12
26,FLTGGDMMTLLMKKDTLTEEETQF,2.23
27,FLCGGDMMTLLMKKDTLTEEETQF,2.17

row,Variant,protein stability index
1,FLWGGDMMTLLMKKDTLTEEETQF,2.55
2,FLEGGDMMTLLMKKDTLTEEETQF,2.32
3,FLFGGDMMTLLMKKDTLTEEETQF,2.22
4,FLIGGDMMTLLMKKDTLTEEETQF,2.31
5,FLRGGDMMTLLMKKDTLTEEETQF,2.76
6,FLHGGDMMTLLMKKDTLTEEETQF,1.98
7,YLPGGDMMTLLMKKDTLTEEETQF,2.33
8,MLPGGDMMTLLMKKDTLTEEETQF,4.39
9,ELPGGDMMTLLMKKDTLTEEETQF,4.92
10,VLPGGDMMTLLMKKDTLTEEETQF,4.67
11,QLPGGDMMTLLMKKDTLTEEETQF,4.79
12,ALPGGDMMTLLMKKDTLTEEETQF,4.91
13,HLPGGDMMTLLMKKDTLTEEETQF,4.48
14,GLPGGDMMTLLMKKDTLTEEETQF,4.51
15,CLPGGDMMTLLMKKDTLTEEETQF,4.39
16,RLPGGDMMTLLMKKDTLTEEETQF,4.39
17,TLPGGDMMTLLMKKDTLTEEETQF,4.68
18,WLPGGDMMTLLMKKDTLTEEETQF,3.49
19,DLPGGDMMTLLMKKDTLTEEETQF,5.25
20,KLPGGDMMTLLMKKDTLTEEETQF,4.54
21,LLPGGDMMTLLMKKDTLTEEETQF,3.71
22,NLPGGDMMTLLMKKDTLTEEETQF,4.66
23,ILPGGDMMTLLMKKDTLTEEETQF,3.88
24,PLPGGDMMTLLMKKDTLTEEETQF,4.76
25,SLPGGDMMTLLMKKDTLTEEETQF,4.29

# Variants of: B2
# Test: as above
# Conditions: c terminus: a fixed tail appended
row,Variant,protein stability index
1,KTSLLDQLTNTSGTVIGVGSCIVI,3
2,KTSLLDQLTNTSGTVIGVVSCIVI,2.91
3,KTSLLDQLTNTSGTVIGVWSCIVI,2.06
4,KTSLLDQLTNTSGTVIGVHSCIVI,4.49
5,KTSLLDQLTNTSGTVIGVKSCIVI,2.97
6,KTSLLDQLTNTSGTVIGVRSCIVI,3.08
7,KTSLLDQLTNTSGTVIGVSSCIVI,3.29
8,KTSLLDQLTNTSGTVIGVISCIVI,2.2
9,KTSLLDQLTNTSGTVIGVPSCIVI,1.91
10,KTSLLDQLTNTSGTVIGVLSCIVI,3.78
11,KTSLLDQLTNTSGTVIGVNSCIVI,3.28
12,KTSLLDQLTNTSGTVIGVFSCIVI,2.52
13,KTSLLDQLTNTSGTVIGVQSCIVI,3.55
14,KTSLLDQLTNTSGTVIGVMSCIVI,2.5
15,KTSLLDQLTNTSGTVIGVYSCIVI,2.79
